Paper PMC8856733
Each block holds one substance with its values, some of them ahead of it.

Assays:
Assay in all cases: SEC
[1] = molecular target: human glycyl-tRNA synthetase (GlyRS) G526R, CMT mutant (human)
[2] = molecular target: human glycyl-tRNA synthetase (GlyRS) C157R, CMT mutant (human)
[3] = molecular target: human glycyl-tRNA synthetase (GlyRS), wild type (human)
[4] = molecular target: human glycyl-tRNA synthetase (GlyRS) L129P, CMT mutant (human)
[5] = molecular target: human glycyl-tRNA synthetase (GlyRS) E279D, CMT mutant (human)
[6] = molecular target: human glycyl-tRNA synthetase (GlyRS) G240R, CMT mutant (human)
[7] = molecular target: human glycyl-tRNA synthetase (GlyRS) E71G, CMT mutant (human)

Substance: human glycyl-tRNA synthetase (GlyRS) G526R, CMT mutant (enzyme)
stoichiometry N [1]: 2

Substance: human glycyl-tRNA synthetase (GlyRS), wild type (enzyme)
stoichiometry N [3]: 2

Substance: human glycyl-tRNA synthetase (GlyRS) E279D, CMT mutant (enzyme)
stoichiometry N [5]: 2

Continued, values first:

stoichiometry N [2]: 2
Substance: human glycyl-tRNA synthetase (GlyRS) C157R, CMT mutant (enzyme)

stoichiometry N [4]: 2
Substance: human glycyl-tRNA synthetase (GlyRS) L129P, CMT mutant (enzyme)

stoichiometry N [6]: 2
Substance: human glycyl-tRNA synthetase (GlyRS) G240R, CMT mutant (enzyme)

stoichiometry N [7]: 2
Substance: human glycyl-tRNA synthetase (GlyRS) E71G, CMT mutant (enzyme)
